The text below walks through data of the supplement of paper PMC9112550, “Optimization of the antimicrobial peptide Bac7 by deep mutational scanning” (BMC Biology, 2022).
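Note: peptides expressed intracellularly from a pBAD plasmid library in pooled LB shake-flask culture, induced with 0.3% L-arabinose, DNA abundance read by NGS, three biological replicates, DESeq2 with apeglm shrinkage.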

This data set deals with Escherichia coli TOP10. Nature of the data set: shrunken log2 fold change of peptide-encoding DNA abundance (4.5 h post-induction vs induction); higher = less antimicrobial activity (less host growth inhibition). The following applies: time post-induction: 4.5 h; library: site-saturation at positions 5, 18, 19, 20.
Regarding RRIRNRPPRLPRPRPRPTYVPRP, the “shrunken log2 fold change” value is -0.143.

For RRIRLRPPRLPRPRPRPTAHPRP, the “shrunken log2 fold change” value turned out to be 0.0391.

On to RRIRHRPPRLPRPRPRPYTPPRP, for which the “shrunken log2 fold change” value was -1.32.

Take RRIRGRPPRLPRPRPRPSDMPRP: the “shrunken log2 fold change” value stood at 0.488.

For the sequence RRIRWRPPRLPRPRPRPCQLPRP, the “shrunken log2 fold change” value is -0.0812.

On to RRIRRRPPRLPRPRPRPINFPRP, for which the “shrunken log2 fold change” value was -0.0729.

In the case of RRIRSRPPRLPRPRPRPWVDPRP, the “shrunken log2 fold change” value was -0.0314.

Consider RRIRTRPPRLPRPRPRPCCKPRP, for which the “shrunken log2 fold change” value was -0.279.

Take RRIRMRPPRLPRPRPRPFWLPRP: the “shrunken log2 fold change” value is -0.179.

On to RRIRIRPPRLPRPRPRPPPIPRP, for which the “shrunken log2 fold change” value turned out to be 0.141.

For RRIRFRPPRLPRPRPRPSPWPRP, the “shrunken log2 fold change” value came out at 1.82.

Take RRIRGRPPRLPRPRPRPTCKPRP: the “shrunken log2 fold change” value turned out to be 0.57.

As to RRIRKRPPRLPRPRPRPQAFPRP, the “shrunken log2 fold change” value is -0.0237.

Turning to RRIRPRPPRLPRPRPRPTREPRP, the “shrunken log2 fold change” value was found to be 0.177.

As for RRIRMRPPRLPRPRPRPRPPPRP, the “shrunken log2 fold change” value is 1.55.

As for RRIRWRPPRLPRPRPRPWGYPRP, the “shrunken log2 fold change” value turned out to be 0.0906.

With RRIRWRPPRLPRPRPRPWSIPRP, the “shrunken log2 fold change” value is -0.46.

On to RRIRGRPPRLPRPRPRPPVEPRP, for which the “shrunken log2 fold change” value came out at 0.608.

For the sequence RRIRQRPPRLPRPRPRPDFPPRP, the “shrunken log2 fold change” value came out at 0.065.

Turning to RRIRLRPPRLPRPRPRPQIRPRP, the “shrunken log2 fold change” value is -0.0176.

Turning to RRIRHRPPRLPRPRPRPEPYPRP, the “shrunken log2 fold change” value was 0.0514.

As to RRIRERPPRLPRPRPRPHVQPRP, the “shrunken log2 fold change” value was -0.434.

In the case of RRIRLRPPRLPRPRPRPEYQPRP, the “shrunken log2 fold change” value is -0.0351.

As for RRIRKRPPRLPRPRPRPLYNPRP, the “shrunken log2 fold change” value was -0.263.

As for RRIRQRPPRLPRPRPRPWFLPRP, the “shrunken log2 fold change” value was -0.0618.

As for RRIRERPPRLPRPRPRPHPWPRP, the “shrunken log2 fold change” value is -0.392.

As to RRIRMRPPRLPRPRPRPHVGPRP, the “shrunken log2 fold change” value was determined as 0.105.

With RRIRARPPRLPRPRPRPGPHPRP, the “shrunken log2 fold change” value came out at 0.568.

On to RRIRFRPPRLPRPRPRPDPRPRP, for which the “shrunken log2 fold change” value turned out to be 0.182.

On to RRIRTRPPRLPRPRPRPKGYPRP, for which the “shrunken log2 fold change” value was -0.0992.

As to RRIRQRPPRLPRPRPRPVTRPRP, the “shrunken log2 fold change” value came out at 0.0193.

As for RRIRFRPPRLPRPRPRPHHKPRP, the “shrunken log2 fold change” value is -0.462.

Regarding RRIRTRPPRLPRPRPRPTWLPRP, the “shrunken log2 fold change” value came out at 0.511.

Turning to RRIRSRPPRLPRPRPRPVRRPRP, the “shrunken log2 fold change” value is 0.558.

RRIRNRPPRLPRPRPRPRLRPRP: the “shrunken log2 fold change” value came out at 0.0785.

As for RRIRLRPPRLPRPRPRPFIVPRP, the “shrunken log2 fold change” value was -0.238.

Regarding RRIRCRPPRLPRPRPRPYKMPRP, the “shrunken log2 fold change” value is -1.66.

With RRIRPRPPRLPRPRPRPMISPRP, the “shrunken log2 fold change” value is -0.098.

For the sequence RRIRWRPPRLPRPRPRPSGAPRP, the “shrunken log2 fold change” value was determined as 0.527.

In the case of RRIRFRPPRLPRPRPRPRWPPRP, the “shrunken log2 fold change” value was determined as 0.327.

RRIRKRPPRLPRPRPRPIRWPRP: the “shrunken log2 fold change” value turned out to be 0.0019.

Take RRIRQRPPRLPRPRPRPMPCPRP: the “shrunken log2 fold change” value is -0.00136.

For RRIRARPPRLPRPRPRPHFSPRP, the “shrunken log2 fold change” value was determined as 0.0805.

As for RRIRSRPPRLPRPRPRPAEYPRP, the “shrunken log2 fold change” value is -0.0544.

Take RRIRCRPPRLPRPRPRPRYHPRP: the “shrunken log2 fold change” value is -0.685.

Take RRIRGRPPRLPRPRPRPYCAPRP: the “shrunken log2 fold change” value was -0.119.

As for RRIRARPPRLPRPRPRPKEHPRP, the “shrunken log2 fold change” value was found to be 0.217.

Consider RRIRTRPPRLPRPRPRPFFFPRP, for which the “shrunken log2 fold change” value was 0.0893.

Consider RRIRMRPPRLPRPRPRPEWRPRP, for which the “shrunken log2 fold change” value is 0.829.

RRIRVRPPRLPRPRPRPSQPPRP: the “shrunken log2 fold change” value was -0.112.

For RRIRLRPPRLPRPRPRPHSWPRP, the “shrunken log2 fold change” value was determined as 0.0861.

In the case of RRIRMRPPRLPRPRPRPDKKPRP, the “shrunken log2 fold change” value is -0.0148.

For RRIRERPPRLPRPRPRPRWDPRP, the “shrunken log2 fold change” value turned out to be 0.143.

For RRIRERPPRLPRPRPRPRECPRP, the “shrunken log2 fold change” value is -0.018.

With RRIRQRPPRLPRPRPRPLFQPRP, the “shrunken log2 fold change” value worked out at 0.866.

On to RRIRNRPPRLPRPRPRPDFLPRP, for which the “shrunken log2 fold change” value was -0.342.

As for RRIRERPPRLPRPRPRPPGPPRP, the “shrunken log2 fold change” value stood at 0.478.

For RRIRLRPPRLPRPRPRPQICPRP, the “shrunken log2 fold change” value is -0.0895.

As to RRIRGRPPRLPRPRPRPEVHPRP, the “shrunken log2 fold change” value is 0.141.

As to RRIRERPPRLPRPRPRPDSQPRP, the “shrunken log2 fold change” value was -0.0262.

For RRIRARPPRLPRPRPRPSAIPRP, the “shrunken log2 fold change” value was 0.173.

Turning to RRIRYRPPRLPRPRPRPGSVPRP, the “shrunken log2 fold change” value was -0.101.

For RRIRVRPPRLPRPRPRPIMGPRP, the “shrunken log2 fold change” value is 0.0179.

Take RRIRERPPRLPRPRPRPGVQPRP: the “shrunken log2 fold change” value is -0.351.

As for RRIRYRPPRLPRPRPRPHWTPRP, the “shrunken log2 fold change” value was -0.0421.

Take RRIRSRPPRLPRPRPRPPGDPRP: the “shrunken log2 fold change” value stood at 0.344.

As to RRIRVRPPRLPRPRPRPHMGPRP, the “shrunken log2 fold change” value was -0.302.

In the case of RRIRERPPRLPRPRPRPFQQPRP, the “shrunken log2 fold change” value was -0.0184.

With RRIRFRPPRLPRPRPRPYAQPRP, the “shrunken log2 fold change” value was -0.533.

Consider RRIRQRPPRLPRPRPRPDTKPRP, for which the “shrunken log2 fold change” value was -0.00171.

On to RRIRNRPPRLPRPRPRPKFDPRP, for which the “shrunken log2 fold change” value is -0.235.

As to RRIRSRPPRLPRPRPRPNRVPRP, the “shrunken log2 fold change” value is -0.048.

Regarding RRIRGRPPRLPRPRPRPVLMPRP, the “shrunken log2 fold change” value is 0.316.

For the sequence RRIRMRPPRLPRPRPRPCQYPRP, the “shrunken log2 fold change” value turned out to be 0.0396.

Take RRIRPRPPRLPRPRPRPITDPRP: the “shrunken log2 fold change” value was -0.16.

Take RRIRVRPPRLPRPRPRPWGHPRP: the “shrunken log2 fold change” value stood at 0.0373.

With RRIRCRPPRLPRPRPRPSPWPRP, the “shrunken log2 fold change” value is 0.0328.

Consider RRIRFRPPRLPRPRPRPMAEPRP, for which the “shrunken log2 fold change” value stood at 0.0579.

For the sequence RRIRNRPPRLPRPRPRPGIVPRP, the “shrunken log2 fold change” value is 0.367.

For the sequence RRIRDRPPRLPRPRPRPFEWPRP, the “shrunken log2 fold change” value is 0.109.

As for RRIRYRPPRLPRPRPRPHYHPRP, the “shrunken log2 fold change” value is -0.241.

Regarding RRIRWRPPRLPRPRPRPHPNPRP, the “shrunken log2 fold change” value was -0.0793.

With RRIRKRPPRLPRPRPRPQQMPRP, the “shrunken log2 fold change” value amounted to 0.313.

With RRIRWRPPRLPRPRPRPFDEPRP, the “shrunken log2 fold change” value was found to be 0.129.

For RRIRHRPPRLPRPRPRPNYKPRP, the “shrunken log2 fold change” value was -0.603.

For the sequence RRIRDRPPRLPRPRPRPDEDPRP, the “shrunken log2 fold change” value is 1.46.

In the case of RRIRARPPRLPRPRPRPAAYPRP, the “shrunken log2 fold change” value is 0.412.

In the case of RRIRTRPPRLPRPRPRPDRDPRP, the “shrunken log2 fold change” value was -0.126.

With RRIRLRPPRLPRPRPRPHAKPRP, the “shrunken log2 fold change” value is -0.0928.

On to RRIRRRPPRLPRPRPRPSQAPRP, for which the “shrunken log2 fold change” value amounted to 0.113.

For the sequence RRIRYRPPRLPRPRPRPDWSPRP, the “shrunken log2 fold change” value is -0.522.

In the case of RRIRKRPPRLPRPRPRPDTHPRP, the “shrunken log2 fold change” value was found to be 0.234.

For RRIRTRPPRLPRPRPRPLLGPRP, the “shrunken log2 fold change” value is -0.185.

Regarding RRIRNRPPRLPRPRPRPDQTPRP, the “shrunken log2 fold change” value is -0.0645.

Take RRIRKRPPRLPRPRPRPQNGPRP: the “shrunken log2 fold change” value was -0.178.

For RRIRARPPRLPRPRPRPVQTPRP, the “shrunken log2 fold change” value amounted to 0.264.

Regarding RRIRLRPPRLPRPRPRPHMRPRP, the “shrunken log2 fold change” value came to 0.125.

Consider RRIRVRPPRLPRPRPRPESRPRP, for which the “shrunken log2 fold change” value was -0.0259.

In the case of RRIRPRPPRLPRPRPRPRNQPRP, the “shrunken log2 fold change” value came out at 0.00569.

Take RRIRPRPPRLPRPRPRPCHRPRP: the “shrunken log2 fold change” value was -0.181.

On to RRIRRRPPRLPRPRPRPKNGPRP, for which the “shrunken log2 fold change” value amounted to 0.259.

For RRIRKRPPRLPRPRPRPLPGPRP, the “shrunken log2 fold change” value came to 0.529.

Regarding RRIRRRPPRLPRPRPRPDLTPRP, the “shrunken log2 fold change” value is 0.521.

Consider RRIRLRPPRLPRPRPRPPRPPRP, for which the “shrunken log2 fold change” value amounted to 0.782.

RRIRCRPPRLPRPRPRPWMFPRP: the “shrunken log2 fold change” value was -0.453.

Consider RRIRMRPPRLPRPRPRPWFHPRP, for which the “shrunken log2 fold change” value was -0.121.

On to RRIRCRPPRLPRPRPRPETFPRP, for which the “shrunken log2 fold change” value was determined as 0.07.

In the case of RRIRCRPPRLPRPRPRPNHIPRP, the “shrunken log2 fold change” value was -0.994.

As to RRIRKRPPRLPRPRPRPNVPPRP, the “shrunken log2 fold change” value came out at 0.11.

Turning to RRIRRRPPRLPRPRPRPNGKPRP, the “shrunken log2 fold change” value was 0.02.

In the case of RRIRIRPPRLPRPRPRPDPIPRP, the “shrunken log2 fold change” value was -0.0427.

Consider RRIRCRPPRLPRPRPRPDCHPRP, for which the “shrunken log2 fold change” value was -0.0697.

On to RRIRWRPPRLPRPRPRPAHMPRP, for which the “shrunken log2 fold change” value was 0.0152.

For the sequence RRIRMRPPRLPRPRPRPDFNPRP, the “shrunken log2 fold change” value is 0.0763.

Consider RRIRWRPPRLPRPRPRPVDWPRP, for which the “shrunken log2 fold change” value worked out at 2.21.

In the case of RRIRIRPPRLPRPRPRPNQSPRP, the “shrunken log2 fold change” value was -0.812.

In the case of RRIRKRPPRLPRPRPRPTLSPRP, the “shrunken log2 fold change” value was determined as 0.0214.

Regarding RRIRNRPPRLPRPRPRPVMPPRP, the “shrunken log2 fold change” value worked out at 0.267.

With RRIRVRPPRLPRPRPRPCWGPRP, the “shrunken log2 fold change” value was -0.0908.

With RRIRKRPPRLPRPRPRPSEGPRP, the “shrunken log2 fold change” value came out at 0.0116.

As to RRIRYRPPRLPRPRPRPQCWPRP, the “shrunken log2 fold change” value was -0.321.

For the sequence RRIRYRPPRLPRPRPRPTNEPRP, the “shrunken log2 fold change” value is -0.586.

As to RRIRCRPPRLPRPRPRPCCPPRP, the “shrunken log2 fold change” value was -0.316.

With RRIRVRPPRLPRPRPRPHCSPRP, the “shrunken log2 fold change” value is -0.0738.

RRIRCRPPRLPRPRPRPGNGPRP: the “shrunken log2 fold change” value was determined as 0.217.
